Values belong to the binder of their own block, whether it stands above or below them.
Tests used:
p97-Myc = p97-Myc co-IP, 293 cells, MudPIT MS
Cullin 2 (human) [1] = molecular target: Cullin 2 (human) (UniProt Q13617); test: Flag co-IP, MudPIT MS, DMSO
Cullin 2 (human) [2] = molecular target: Cullin 2 (human) (UniProt Q13617); test: Flag co-IP, MudPIT MS, MG132
VCIP135 (human) = molecular target: T1, VCIP135 (human) (UniProt Q96JH7); test: Flag co-IP, 293 cells, MudPIT MS
T1 sequence (looked up): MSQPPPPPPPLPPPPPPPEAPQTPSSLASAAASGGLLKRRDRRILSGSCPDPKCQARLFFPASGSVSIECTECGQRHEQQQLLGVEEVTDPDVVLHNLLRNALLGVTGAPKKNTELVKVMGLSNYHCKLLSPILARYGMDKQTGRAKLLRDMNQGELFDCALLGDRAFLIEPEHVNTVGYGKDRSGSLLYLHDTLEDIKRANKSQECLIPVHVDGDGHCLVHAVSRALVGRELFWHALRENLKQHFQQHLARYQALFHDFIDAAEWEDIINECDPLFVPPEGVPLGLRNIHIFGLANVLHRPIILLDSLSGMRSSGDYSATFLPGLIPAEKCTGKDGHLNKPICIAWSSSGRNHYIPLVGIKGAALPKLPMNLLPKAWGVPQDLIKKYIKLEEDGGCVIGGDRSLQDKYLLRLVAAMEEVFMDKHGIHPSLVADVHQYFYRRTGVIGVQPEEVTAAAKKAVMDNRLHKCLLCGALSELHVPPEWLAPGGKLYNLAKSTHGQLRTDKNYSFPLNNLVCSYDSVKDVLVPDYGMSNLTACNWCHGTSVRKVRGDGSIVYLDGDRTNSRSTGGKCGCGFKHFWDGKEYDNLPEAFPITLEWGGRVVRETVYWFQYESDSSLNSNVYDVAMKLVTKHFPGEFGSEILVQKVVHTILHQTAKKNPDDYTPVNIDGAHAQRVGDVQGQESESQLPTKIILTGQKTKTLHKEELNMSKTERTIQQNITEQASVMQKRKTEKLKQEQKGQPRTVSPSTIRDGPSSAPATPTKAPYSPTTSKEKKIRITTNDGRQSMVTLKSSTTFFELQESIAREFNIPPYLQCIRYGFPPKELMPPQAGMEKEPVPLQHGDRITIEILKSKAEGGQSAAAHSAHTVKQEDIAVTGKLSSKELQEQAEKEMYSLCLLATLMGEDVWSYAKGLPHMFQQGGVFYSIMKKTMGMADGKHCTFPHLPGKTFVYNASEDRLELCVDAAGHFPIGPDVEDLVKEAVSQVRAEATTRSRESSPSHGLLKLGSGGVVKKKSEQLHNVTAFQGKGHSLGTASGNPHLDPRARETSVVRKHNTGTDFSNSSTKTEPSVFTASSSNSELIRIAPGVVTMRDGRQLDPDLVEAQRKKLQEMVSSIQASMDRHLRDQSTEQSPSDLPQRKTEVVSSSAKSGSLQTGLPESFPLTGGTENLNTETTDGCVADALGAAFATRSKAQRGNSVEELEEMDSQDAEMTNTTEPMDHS

endogenous UFD1 (human) = molecular target: T2, endogenous UFD1 (human) (UniProt Q92890); test: Flag co-IP, 293 cells, MudPIT MS
T2 sequence (looked up): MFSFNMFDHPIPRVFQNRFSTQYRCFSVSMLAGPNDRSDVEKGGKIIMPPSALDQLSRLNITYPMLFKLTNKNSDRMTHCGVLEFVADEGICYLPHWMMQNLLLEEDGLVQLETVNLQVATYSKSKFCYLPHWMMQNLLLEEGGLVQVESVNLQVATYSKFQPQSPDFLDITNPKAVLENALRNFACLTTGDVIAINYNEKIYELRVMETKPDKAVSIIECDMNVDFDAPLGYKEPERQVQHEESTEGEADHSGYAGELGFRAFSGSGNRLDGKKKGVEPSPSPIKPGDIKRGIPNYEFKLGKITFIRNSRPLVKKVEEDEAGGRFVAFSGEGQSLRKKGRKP

endogenous p97 (human) = endogenous p97 (human) (UniProt P55072); test: Flag co-IP, 293 cells, MudPIT MS
Sequence of endogenous p97 (human) (P55072 2-806 limits assumed): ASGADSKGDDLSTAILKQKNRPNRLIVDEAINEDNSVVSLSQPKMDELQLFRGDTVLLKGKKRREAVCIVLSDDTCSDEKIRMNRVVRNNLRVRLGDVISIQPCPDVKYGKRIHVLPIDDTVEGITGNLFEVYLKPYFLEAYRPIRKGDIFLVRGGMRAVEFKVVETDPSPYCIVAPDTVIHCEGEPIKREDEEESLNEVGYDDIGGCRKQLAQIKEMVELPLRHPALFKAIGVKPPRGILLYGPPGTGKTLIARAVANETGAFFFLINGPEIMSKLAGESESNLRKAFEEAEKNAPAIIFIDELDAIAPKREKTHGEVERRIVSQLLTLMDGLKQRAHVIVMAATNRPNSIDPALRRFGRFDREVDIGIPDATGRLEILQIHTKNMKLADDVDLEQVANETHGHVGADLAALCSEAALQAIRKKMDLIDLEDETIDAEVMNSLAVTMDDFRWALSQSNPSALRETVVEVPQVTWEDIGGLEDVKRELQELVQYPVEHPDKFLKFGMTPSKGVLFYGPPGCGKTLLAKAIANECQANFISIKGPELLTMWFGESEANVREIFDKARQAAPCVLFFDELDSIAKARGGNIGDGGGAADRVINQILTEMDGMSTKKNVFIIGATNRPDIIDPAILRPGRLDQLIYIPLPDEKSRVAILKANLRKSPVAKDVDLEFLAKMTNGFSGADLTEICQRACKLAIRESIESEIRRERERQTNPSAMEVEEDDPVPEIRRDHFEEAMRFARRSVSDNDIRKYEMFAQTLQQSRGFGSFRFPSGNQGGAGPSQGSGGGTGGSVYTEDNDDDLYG

Sequence of p97-Myc (Q01853 2-806): as the sequence (P55072 2-806 limits assumed) above
Sequence of Cullin 2 (human) (Q13617 whole entry): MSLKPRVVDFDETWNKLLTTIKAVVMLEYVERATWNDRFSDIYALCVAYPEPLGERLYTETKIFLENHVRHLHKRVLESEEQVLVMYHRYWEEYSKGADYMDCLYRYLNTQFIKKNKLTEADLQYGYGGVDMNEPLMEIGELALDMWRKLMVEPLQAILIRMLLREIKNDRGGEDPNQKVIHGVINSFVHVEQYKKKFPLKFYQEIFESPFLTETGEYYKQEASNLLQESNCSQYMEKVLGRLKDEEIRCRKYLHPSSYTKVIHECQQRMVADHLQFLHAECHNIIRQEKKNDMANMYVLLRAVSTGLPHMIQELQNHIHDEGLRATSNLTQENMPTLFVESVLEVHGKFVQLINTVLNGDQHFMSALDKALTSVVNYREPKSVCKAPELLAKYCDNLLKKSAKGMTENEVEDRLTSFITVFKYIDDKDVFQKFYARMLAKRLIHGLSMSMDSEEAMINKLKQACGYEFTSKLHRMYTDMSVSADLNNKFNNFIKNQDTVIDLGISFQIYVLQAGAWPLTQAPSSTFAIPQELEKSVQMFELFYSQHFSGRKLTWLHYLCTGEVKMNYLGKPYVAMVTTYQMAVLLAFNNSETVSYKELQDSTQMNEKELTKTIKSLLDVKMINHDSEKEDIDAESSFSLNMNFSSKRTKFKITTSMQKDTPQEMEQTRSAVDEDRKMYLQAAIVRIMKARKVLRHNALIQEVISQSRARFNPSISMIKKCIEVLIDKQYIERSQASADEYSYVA

sequence count (p97-Myc): 2 | sequence coverage (p97-Myc): 19.5% | spectrum count (p97-Myc): 2
B1: endogenous SAKS1 (protein, human, UniProt Q04323 2-297, looked up)
chain: AELTALESLIEMGFPRGRAEKALALTGNQGIEAAMDWLMEHEDDPDVDEPLETPLGHILGREPTSSEQGGLEGSGSAAGEGKPALSEEERQEQTKRMLELVAQKQREREEREEREALERERQRRRQGQELSAARQRLQEDEMRRAAEERRREKAEELAARQRVREKIERDKAERAKKYGGSVGSQPPPVAPEPGPVPSSPSQEPPTKREYDQCRIQVRLPDGTSLTQTFRAREQLAAVRLYVELHRGEELGGGQDPVQLLSGFPRRAFSEADMERPLQELGLVPSAVLIVAKKCPS

sequence count (p97-Myc): 4 | sequence coverage (p97-Myc): 19.3% | spectrum count (p97-Myc): 5
B5: endogenous UBXD4 (protein, human, UniProt P68543 1-259, looked up)
chain: MKDVDNLKSIKEEWVCETGSDNQPLGNNQQSNCEYFVDSLFEEAQKVSSKCVSPAEQKKQVDVNIKLWKNGFTVNDDFRSYSDGASQQFLNSIKKGELPSELQGIFDKEEVDVKVEDKKNEICLSTKPVFQPFSGQGHRLGSATPKIVSKAKNIEVENKNNLSAVPLNNLEPITNIQIWLANGKRIVQKFNITHRVSHIKDFIEKYQGSQRSPPFSLATALPVLRLLDETLTLEEADLQNAVIIQRLQKTASFRELSEH

sequence count (VCIP135 (human)): 14 | sequence coverage (VCIP135 (human)): 17.6% | spectrum count (VCIP135 (human)): 15
B7: Flag-p47 (protein, UniProt O35987 1-370, looked up, not shown: small tags and cut ends)
chain: MAEERQDALREFVAVTGAEEDRARFFLESAGWDLQIALASFYEDGGDEDIVTISQATPSSVSRGTAPSDNRVTSFRDLIHDQDEEEEEEEGQRFYAGGSERSGQQIVGPPRKKSPNELVDDLFKGAKEHGAVAVERVTKSPGETSKPRPFAGGGYRLGAAPEEESAYVAGERRRHSGQDVHVVLKLWKTGFSLDNGDLRSYQDPSNAQFLESIRRGEVPAELRRLAHGGQVNLDMEDHRDEDFVKPKGAFKAFTGEGQKLGSTAPQVLNTSSPAQQAENEAKASSSILINEAEPTTNIQIRLADGGRLVQKFNHSHRISDIRLFIVDARPAMAATSFVLMTTFPNKELADENQTLKEANLLNAVIVQRLT

sequence count (p97-Myc): 11 | sequence coverage (p97-Myc): 33.7% | spectrum count (p97-Myc): 12
B8: endogenous UBXD8 (protein, human, UniProt Q96CS3 2-445, looked up)
chain: AAPEERDLTQEQTEKLLQFQDLTGIESMDQCRHTLEQHNWNIEAAVQDRLNEQEGVPSVFNPPPSRPLQVNTADHRIYSYVVSRPQPRGLLGWGYYLIMLPFRFTYYTILDIFRFALRFIRPDPRSRVTDPVGDIVSFMHSFEEKYGRAHPVFYQGTYSQALNDAKRELRFLLVYLHGDDHQDSDEFCRNTLCAPEVISLINTRMLFWACSTNKPEGYRVSQALRENTYPFLAMIMLKDRRMTVVGRLEGLIQPDDLINQLTFIMDANQTYLVSERLEREERNQTQVLRQQQDEAYLASLRADQEKERKKREERERKRRKEEEVQQQKLAEERRRQNLQEEKERKLECLPPEPSPDDPESVKIIFKLPNDSRVERRFHFSQSLTVIHDFLFSLKESPEKFQIEANFPRRVLPCIPSEEWPNPPTLQEAGLSHTEVLFVQDLTDE

abundance factor (AF) (Cullin 2 (human) [1]): 2.4 | sequence count (Cullin 2 (human) [1]): 4 | spectrum count (Cullin 2 (human) [1]): 12 | abundance factor (AF) (Cullin 2 (human) [2]): 10.3 | sequence count (Cullin 2 (human) [2]): 8 | spectrum count (Cullin 2 (human) [2]): 38
B9: Flag-UBXD8 (protein, UniProt Q96CS3 1-445, looked up, not shown: small tags and cut ends)
chain: MAAPEERDLTQEQTEKLLQFQDLTGIESMDQCRHTLEQHNWNIEAAVQDRLNEQEGVPSVFNPPPSRPLQVNTADHRIYSYVVSRPQPRGLLGWGYYLIMLPFRFTYYTILDIFRFALRFIRPDPRSRVTDPVGDIVSFMHSFEEKYGRAHPVFYQGTYSQALNDAKRELRFLLVYLHGDDHQDSDEFCRNTLCAPEVISLINTRMLFWACSTNKPEGYRVSQALRENTYPFLAMIMLKDRRMTVVGRLEGLIQPDDLINQLTFIMDANQTYLVSERLEREERNQTQVLRQQQDEAYLASLRADQEKERKKREERERKRRKEEEVQQQKLAEERRRQNLQEEKERKLECLPPEPSPDDPESVKIIFKLPNDSRVERRFHFSQSLTVIHDFLFSLKESPEKFQIEANFPRRVLPCIPSEEWPNPPTLQEAGLSHTEVLFVQDLTDE

Second part, the binder before the results:

B2: endogenous p37 (protein, human, UniProt Q14CS0 2-331, looked up)
chain: AEGGGPEPGEQERRSSGPRPPSARDLQLALAELYEDEVKCKSSKSNRPKATVFKSPRTPPQRFYSSEHEYSGLNIVRPSTGKIVNELFKEAREHGAVPLNEATRASGDDKSKSFTGGGYRLGSSFCKRSEYIYGENQLQDVQILLKLWSNGFSLDDGELRPYNEPTNAQFLESVKRGEIPLELQRLVHGGQVNLDMEDHQDQEYIKPRLRFKAFSGEGQKLGSLTPEIVSTPSSPEEEDKSILNAVVLIDDSVPTTKIQIRLADGSRLIQRFNSTHRILDVRNFIVQSRPEFAALDFILVTSFPNKELTDESLTLLEADILNTVLLQQLK
sequence count (p97-Myc): 6 | sequence coverage (p97-Myc): 32.3% | spectrum count (p97-Myc): 7

B3: endogenous p47 (protein, human, UniProt Q9UNZ2 1-370, looked up)
chain: MAAERQEALREFVAVTGAEEDRARFFLESAGWDLQIALASFYEDGGDEDIVTISQATPSSVSRGTAPSDNRVTSFRDLIHDQDEDEEEEEGQRFYAGGSERSGQQIVGPPRKKSPNELVDDLFKGAKEHGAVAVERVTKSPGETSKPRPFAGGGYRLGAAPEEESAYVAGEKRQHSSQDVHVVLKLWKSGFSLDNGELRSYQDPSNAQFLESIRRGEVPAELRRLAHGGQVNLDMEDHRDEDFVKPKGAFKAFTGEGQKLGSTAPQVLSTSSPAQQAENEAKASSSILIDESEPTTNIQIRLADGGRLVQKFNHSHRISDIRLFIVDARPAMAATSFILMTTFPNKELADESQTLKEANLLNAVIVQRLT
sequence count (p97-Myc): 19 | sequence coverage (p97-Myc): 52.2% | spectrum count (p97-Myc): 153

B4: Flag-SAKS1 (protein, UniProt Q04323 1-297, looked up, not shown: small tags and cut ends)
chain: MAELTALESLIEMGFPRGRAEKALALTGNQGIEAAMDWLMEHEDDPDVDEPLETPLGHILGREPTSSEQGGLEGSGSAAGEGKPALSEEERQEQTKRMLELVAQKQREREEREEREALERERQRRRQGQELSAARQRLQEDEMRRAAEERRREKAEELAARQRVREKIERDKAERAKKYGGSVGSQPPPVAPEPGPVPSSPSQEPPTKREYDQCRIQVRLPDGTSLTQTFRAREQLAAVRLYVELHRGEELGGGQDPVQLLSGFPRRAFSEADMERPLQELGLVPSAVLIVAKKCPS
abundance factor (AF) (Cullin 2 (human) [1]): 3.7 | sequence count (Cullin 2 (human) [1]): 3 | spectrum count (Cullin 2 (human) [1]): 4 | abundance factor (AF) (Cullin 2 (human) [2]): 5.5 | sequence count (Cullin 2 (human) [2]): 4 | spectrum count (Cullin 2 (human) [2]): 11

B6: Flag-NPL4 (protein, UniProt Q8TAT6 2-608, looked up, species assumed)
Nuclear protein localization protein 4 homolog: AESIIIRVQSPDGVKRITATKRETAATFLKKVAKEFGFQNNGFSVYINRNKTGEITASSNKSLNLLKIKHGDLLFLFPSSLAGPSSEMETSVPPGFKVFGAPNVVEDEIDQYLSKQDGKIYRSRDPQLCRHGPLGKCVHCVPLEPFDEDYLNHLEPPVKHMSFHAYIRKLTGGADKGKFVALENISCKIKSGCEGHLPWPNGICTKCQPSAITLNRQKYRHVDNIMFENHTVADRFLDFWRKTGNQHFGYLYGRYTEHKDIPLGIRAEVAAIYEPPQIGTQNSLELLEDPKAEVVDEIAAKLGLRKVGWIFTDLVSEDTRKGTVRYSRNKDTYFLSSEECITAGDFQNKHPNMCRLSPDGHFGSKFVTAVATGGPDNQVHFEGYQVSNQCMALVRDECLLPCKDAPELGYAKESSSEQYVPDVFYKDVDKFGNEITQLARPLPVEYLIIDITTTFPKDPVYTFSISQNPFPIENRDVLGETQDFHSLATYLSQNTSSVFLDTISDFHLLLFLVTNEVMPLQDSISLLLEAVRTRNEELAQTWKRSEQWATIEQLCSTVGGQLPGLHEYGAVGGSTHTATAAMWACQHCTFMNQPGTGHCEMCSLPRT
modifications: N-terminal Flag tag
sequence count (VCIP135 (human)): 2 | sequence coverage (VCIP135 (human)): 2.5% | spectrum count (VCIP135 (human)): 2 | sequence count (endogenous UFD1 (human)): 14 | sequence coverage (endogenous UFD1 (human)): 37.9% | spectrum count (endogenous UFD1 (human)): 22 | sequence count (endogenous p97 (human)): 79 | sequence coverage (endogenous p97 (human)): 70.4% | spectrum count (endogenous p97 (human)): 414

Source: patent US20090192084A1
